In patent US20110165660A1, “ENGINEERED MICROORGANISMS WITH ENHANCED FERMENTATION ACTIVITY” (VERDEZYNE, INC., priority 2009, published 2011):

B1: Escherichia coli: xylose isomerase of this donor organism expressed in S. cerevisiae (protein, UniProt P00944 1-440, looked up)
Xylose isomerase: MQAYFDQLDRVRYEGSKSSNPLAFRHYNPDELVLGKRMEEHLRFAACYWHTFCWNGADMFGVGAFNRPWQQPGEALALAKRKADVAFEFFHKLHVPFYCFHDVDVSPEGASLKEYINNFAQMVDVLAGKQEESGVKLLWGTANCFTNPRYGAGAATNPDPEVFSWAATQVVTAMEATHKLGGENYVLWGGREGYETLLNTDLRQEREQLGRFMQMVVEHKHKIGFQGTLLIEPKPQEPTKHQYDYDAATVYGFLKQFGLEKEIKLNIEANHATLAGHSFHHEIATAIALGLFGSVDANRGDAQLGWDTDQFPNSVEENALVMYEILKAGGFTTGGLNFDAKVRRQSTDKYDLFYGHIGAMDTMALALKIAARMIEDGELDKRIAQRYSGWNSELGQQILKGQMSLADLAKYAQEHHLSPVHQSGRQEQLENLVNHYLFDK
B2: Bacillus subtilis: xylose isomerase of this donor organism expressed in S. cerevisiae (protein, UniProt P0CI80 1-445, looked up)
Xylose isomerase: MAQSHSSSINYFGSANKVVYEGKDSTNPLAFKYYNPQEVIGGKTLKEHLRFSIAYWHTFTADGTDVFGAATMQRPWDHYKGMDLAKMRVEAAFEMFEKLDAPFFAFHDRDIAPEGSTLKETNQNLDMIMGMIKDYMRNSGVKLLWNTANMFTNPRFVHGAATSCNADVFAYAAAQVKKGLETAKELGAENYVFWGGREGYETLLNTDLKFELDNLARFMHMAVDYAKEIGYTGQFLIEPKPKEPTTHQYDTDAATTIAFLKQYGLDNHFKLNLEANHATLAGHTFEHELRMARVHGLLGSVDANQGHPLLGWDTDEFPTDLYSTTLAMYEILQNGGLGSGGLNFDAKVRRSSFEPDDLIYAHIAGMDAFARGLKVAHKLIEDRVFEDVIQHRYRSFTEGIGLEIIEGRANFHTLEQYALNHKSIKNESGRQEKLKAILNQYILEV
modifications: expressed in S. cerevisiae
B3: Clostridium thermosulfurogenes: xylose isomerase of this donor organism expressed in S. cerevisiae (protein, UniProt P19148 1-439, looked up)
Xylose isomerase: MNKYFENVSKIKYEGPKSNNPYSFKFYNPEEVIDGKTMEEHLRFSIAYWHTFTADGTDQFGKATMQRPWNHYTDPMDIAKARVEAAFEFFDKINAPYFCFHDRDIAPEGDTLRETNKNLDTIVAMIKDYLKTSKTKVLWGTANLFSNPRFVHGASTSCNADVFAYSAAQVKKALEITKELGGENYVFWGGREGYETLLNTDMEFELDNFARFLHMAVDYAKEIGFEGQFLIEPKPKEPTKHQYDFDVANVLAFLRKYDLDKYFKVNIEANHATLAFHDFQHELRYARINGVLGSIDANTGDMLLGWDTDQFPTDIRMTTLAMYEVIKMGGFDKGGLNFDAKVRRASFEPEDLFLGHIAGMDAFAKGFKVAYKLVKDRVFDKFIEERYASYKDGIGADIVSGKADFRSLEKYALERSQIVNKSGRQELLESILNQYLFAE
B4: Bacillus licheniformis: xylose isomerase of this donor organism expressed in S. cerevisiae (protein, UniProt P77832 1-448, looked up)
Xylose isomerase: MFFRNIGMIEYEGADSENPYAFKYYNPDEFVGGKTMKEHLRFAVAYWHTFDADGKDPFGDGTMFRAWNRLTHPLDKAKARAEAAFEFFEKLGVPYFCFHDVDIVDEGATLRETFTYLDQMSSFLKEMMETSHVQLLWNTANMFTHPRYVHGAATSCNADVYAYAAAKVKKGLDIAKELGAENYVFWGGREGYETLLNTDMKLELENLSSFYRMAVEYAREIGFDGQFLIEPKPKEPTKHQYDFDAATTIAFLETYGLKDHFKLNLEANHATLAGHTFEHELRVAALHDMLGSIDANQGDLLLGWDTDEFPTDLYSAVLAMYEILKAGGFKTGGINFDAKVRRPSFADEDLFHAHIAGMDTYAVGLKVASRLLEDKALDQVIEERYESYTKGIGLEIKEGRTDLKKLAAYALENDHIENQSGRQERLKATVNRYLLNALREAPAGKETH
B5: Burkholderia xenovorans: xylose isomerase of this donor organism expressed in S. cerevisiae (protein, UniProt Q13RB8 1-440, looked up)
Xylose isomerase: MSYFEHIPEIRYEGPQSDNPLAYRHYDKSKKVLGKTLEEHLRIAVCYWHTFVWPGVDIFGQGTFRRPWQQAGDAMERARQKADSAFEFFSKLGTPYYTFHDTDVSPEGSSLKEYSENFLRITDYLARKQEDTGIKLLWGTANLFSHPRYAAGAATSPDPEVFAFAATQVRHALDATQRLGGDNYVLWGGREGYDTLLNTDLMRERDQLARFLHMVVDHAHKIGFKGSLLIEPKPQEPTKHQYDYDVATVHGFLLQHGLEKEIRVNIEANHATLAGHSFHHEIATAYALGIFGSVDANRGDPQNGWDTDQFPNSVEELTLAFYEILKHGGFTTGGMNFDSKVRRQSVDPEDLFYGHIGAIDNLALAVERAAVLIENDRLDQFKRQRYAGWDADFGRKILSGDYSLSTLATDALARGLNPQHASGHQELMENIVNQAIYSGR
B6: Psudomonas savastanoi: xylose isomerase of this donor organism expressed in S. cerevisiae (protein, UniProt Q48J73 1-438, looked up)
Xylose isomerase: MPYFPAVDKVRYEGPDSDSPLAFRHYDADKLILGKPMREHLRMAACYWHTFVWPGADMFGVGTFKRPWQGSGDPLELAIGKAETAFEFFSKLGIDYYSFHDTDVAPEGSSLKEYRNNFAQMIDQLERHQEQTGIKLLWGTANCFSNPRFAAGAASNPDPEVFAYAATQVFSAMNATQRLKGANYVLWGGREGYETLLNTDLRQEREQLGRFMRMVVEHKHKIGFKGDLLIEPKPQEPTKHQYDYDSATVFGFLQQYGLEKEIKVNIEANHATLAGHSFHHEIATAVSLGIFGSIDANRGDPQNGWDTDQFPNSVEEMTLATYEILKAGGFTNGGYNFDSKVRRQSLDEVDLFHGHVAAMDVLALALERAAAMVQNDKLQQFKDQRYAGWQQPFGKSLLAGEFSLESLAKHAFDKDLNPQAVSGRQELLEGVVNRFIYF
modifications: expressed in S. cerevisiae
B7: Staphylococcus xylosus: xylose isomerase of this donor organism expressed in S. cerevisiae (protein, UniProt P27157 1-439, looked up)
Xylose isomerase: MSYFDINKVNYEGPKSNNAFSFKYYNPEEKLGNHSMSELLRFSVAYWHTFTADLSDPFGVGVAERDWDSLDEMEKAKARVEAIFEFMEKTRIDYFCFHDVDISPEGASLKESNENLDIIVELIKEKMDQTGKKLLWNTTNNFTHERFVHGAATSSNAEVFAYAAAKVKKSLEIAKKLGSENFVFWGGREGYESLLNTNMKLELDNLATFFKMAKSYADEIGYTGQFLIEPKPKEPTTHQYDTDVATAHAFLQKYDLDKDFKFNIEANHATLAGHTFQHELRYARDNNMLGSVDANQGHPLLGWDTDESTDVYDTTLAMYEILKNGGLAPGGLNFDAKPRRTSFKQEDLILTHIAGMDTFALGLRVAYKMIEDNFFENIMDEKYKSFNEGIGKKIVEGETSLKELEDYAFNINTINNTSDHLEVIKSQINQYILNINNKD
B8: Arabidopsis thaliana: xylose isomerase of this donor organism expressed in S. cerevisiae (protein, UniProt Q9FKK7 1-477, looked up)
Xylose isomerase: MKKVEFFMLLLCFIAASSLVSADPPTCPADLGGKCSDSDDWQGDFFPEIPKIKYEGPSSKNPLAYRWYNAEEEILGKKMKDWFRFSVAFWHTFRGTGGDPFGAATKYWPWEDGTNSVSMAKRRMRANFEFLKKLGVDWWCFHDRDIAPDGTTLEESNKNLDEVIELAKELQKGSKIKPLWGTAQLFLHPRYMHGGATSSEVGVYAYAAAQVKKAMEVTHYLGGENYVFWGGREGYQTLLNTDMGRELDHLARFFEAAVAYKKKIGFKGTLLIEPKPQEPTKHQYDWDAATAANFLRKYGLIDEFKLNIECNHATLSGHTCHHELETARINGLLGNIDANTGDAQTGWDTDQFLTDVGEATMVMMSVIKNGGIAPGGFNFDAKLRRESTDVEDLFIAHISGMDTMARGLRNAVKILEEGSLSELVRKRYATWDSELGKQIEEGKADFEYLEKKAKEFGEPKVSSAKQELAEMIFQSAM
B9: Pseudomonas syringae: xylose isomerase of this donor organism expressed in S. cerevisiae (protein)
chain: MHPRVLEVTERLIARSRDTRQRYLQLIRGAASDGPMRGKLQCANFAHGVAACGPEDKQSLRLMNAANVAIVSSYNEMLSAHQPYEHFPAQIKQALRDIGSVGQFAGGVPAMCDGVTQGEPGMELAIASREVIAMSTAIALSHNMFDAAMMLGICDKIVPGLMMGALRFGHLPTIFVPGGPMVSGISNKEKADVRQRYAEGKASREELLDSEMKSYHGPGTCTFYGTANTNQLVMEVMGMHLPGASFVNPYTPLRDALTAEAARQVTRLTMQSGSFMPIGEIVDERSLVNSIVALHATGGSTNHTLHMPAIAQAAGIQLTWQDMADLSEVVP

Tested on: xylose isomerase activity
Assay: Heterologous xylose isomerase expression in engineered yeast (active yes/no)
Settings: xylose isomerase of the donor organism expressed in engineered yeast (S. cerevisiae)

Molecule	Active? (yes/no)
Actinoplanes missouriensis: xylose isomerase of this donor organism expressed in S. cerevisiae	No
Bacteroides thetaiotaomicron: xylose isomerase of this donor organism expressed in S. cerevisiae	Yes
Streptomyces diastaticus subsp diastaticus: xylose isomerase of this donor organism expressed in S. cerevisiae	No
Streptomyces rubiginosus: xylose isomerase of this donor organism expressed in S. cerevisiae	No
Thermus thermophilus: xylose isomerase (Type 1) of this donor organism expressed in S. cerevisiae	Yes
B1	No
B2	No
B3	No
B4	No
B5	No
B6	No
B7	No
B8	No
B9	No
